The values that follow come from publication PMC3386970.

Holding throughout (assay): SPR; BIAcore 2000. Aaa, N-Aaa and C-Aaa amine-coupled at low density to a C1 chip (149, 96 and 72 pg/mm^2, nearly equimolar). Fg, Fn or Vn injected as analytes at 50 µl/min, 25°C. KD from the kinetics of the initial phases (binding biphasic at higher concentrations).
For orientation: Surface plasmon resonance follows binding to a sensor surface in real time, without labels.

Test [1] has as its target N-terminal LysM domain of Aaa (6 x His-N-Aaa) (Staphylococcus aureus 4074).
Test [2] concerns the target C-terminal CHAP domain of Aaa (6 x His-C-Aaa) (Staphylococcus aureus 4074).
The target in test [3] is autolysin/adhesin Aaa from Staphylococcus aureus (6 x His-Aaa) (Staphylococcus aureus) (UniProt Q2G0U9).

Sequence of N-terminal LysM domain of Aaa (6 x His-N-Aaa) (Staphylococcus aureus 4074) (P0C1U7 26-214 limits assumed): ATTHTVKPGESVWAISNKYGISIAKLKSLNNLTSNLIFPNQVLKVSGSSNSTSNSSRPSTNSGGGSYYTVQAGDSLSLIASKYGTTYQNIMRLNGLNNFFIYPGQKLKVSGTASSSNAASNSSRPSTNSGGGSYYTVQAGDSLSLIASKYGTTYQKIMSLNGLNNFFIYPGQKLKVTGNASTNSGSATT
Sequence of C-terminal CHAP domain of Aaa (6 x His-C-Aaa) (Staphylococcus aureus 4074) (P0C1U7 215-334 limits assumed): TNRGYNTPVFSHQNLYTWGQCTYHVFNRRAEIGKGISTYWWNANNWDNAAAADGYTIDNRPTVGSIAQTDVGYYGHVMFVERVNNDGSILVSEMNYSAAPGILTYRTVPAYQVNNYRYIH

Regarding “fibrinogen (from UniProt P02671 36-866; P02675 45-491; P02679 27-453) (complex)”, the Kd (commonly a measure of binding affinity in units of concentration) in test [1] came out at 0.41 nM; in test [2], 0.74 nM; in test [3], 0.76 nM. Also, the relative stoichiometry of binding (Aaa : N-Aaa : C-Aaa) in test [1] is 2; in test [2] it was 1; in test [3] it was 4.

“fibronectin (from UniProt P02751 32-2477) (natural protein)”: the dissociation constant Kd in test [1] was 5.1 nM; in test [2] it was 6.8 nM; in test [3], 6 nM. Moreover, the relative stoichiometry of binding (Aaa : N-Aaa : C-Aaa) was 1 in test [1], 1 in test [2] and 2 in test [3].

With vitronectin (natural protein), the Kd in test [1] was 18 nM; in test [2], 20 nM; in test [3], 18 nM. For the same substance, the relative stoichiometry of binding (Aaa : N-Aaa : C-Aaa) in test [1] amounted to 1; in test [2], 1; in test [3] it was 2.
